How the values were obtained:
[1] = molecular target: human thrombin receptor (PAR1) (human) (UniProt P25116); assay: ELISA, purified MBP-Gαq on purified reconstituted PAR1 with thrombin receptor activating peptide
[2] = molecular target: light-activated rhodopsin (bovine rod outer segment membranes) (bovine) (UniProt P02699); assay: ELISA, MBP fusion protein on immobilised light-activated rhodopsin
light-activated rhodopsin (bovine rod outer segment membranes) (bovine), sequence (P02699 whole entry, the tested form may be a part): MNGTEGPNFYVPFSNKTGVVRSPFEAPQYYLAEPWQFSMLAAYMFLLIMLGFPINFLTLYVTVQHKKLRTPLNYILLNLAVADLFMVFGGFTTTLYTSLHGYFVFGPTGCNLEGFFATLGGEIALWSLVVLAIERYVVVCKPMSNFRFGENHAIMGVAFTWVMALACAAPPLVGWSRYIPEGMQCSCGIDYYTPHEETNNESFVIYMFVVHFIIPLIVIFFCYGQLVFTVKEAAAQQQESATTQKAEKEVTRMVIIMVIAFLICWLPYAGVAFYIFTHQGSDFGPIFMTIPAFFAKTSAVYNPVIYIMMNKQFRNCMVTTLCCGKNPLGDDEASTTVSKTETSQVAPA

human thrombin receptor (PAR1) (human), sequence (P25116 42-425): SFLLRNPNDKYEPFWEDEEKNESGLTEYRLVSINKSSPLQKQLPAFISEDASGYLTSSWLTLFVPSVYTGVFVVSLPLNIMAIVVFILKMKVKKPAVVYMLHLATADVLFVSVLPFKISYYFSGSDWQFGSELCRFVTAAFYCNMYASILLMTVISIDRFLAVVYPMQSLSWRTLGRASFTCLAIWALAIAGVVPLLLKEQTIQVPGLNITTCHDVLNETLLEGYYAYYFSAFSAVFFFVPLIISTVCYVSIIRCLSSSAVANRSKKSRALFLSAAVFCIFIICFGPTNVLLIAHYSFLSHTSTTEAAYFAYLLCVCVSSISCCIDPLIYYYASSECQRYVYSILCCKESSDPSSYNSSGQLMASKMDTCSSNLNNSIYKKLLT

Substance	IC50 [1]	IC50 [2]
maltose binding protein-Gαq (MBP-Gαq), native Gq peptide fusion	0.214 µM	
MBP-Gαt340-350K341R fusion protein (pELM17)		6 µM

Source: patent US20040018558A1
